T1: mouse HRt (hairless protein aa 490-1182) (Mus musculus, UniProt Q61645)
T1 construct: HR cDNA corresponding to the C-terminal half of HR protein (aa residues 490 to 1182, hereinafter HRt); expressed in transfected cells; host or cells: Saccharomyces cerevisiae PJ69-2A transformed with BD-HRt plasmid, mated with Y187 carrying the human brain cDNA library in pACT2
T1 sequence (Q61645 490-1182): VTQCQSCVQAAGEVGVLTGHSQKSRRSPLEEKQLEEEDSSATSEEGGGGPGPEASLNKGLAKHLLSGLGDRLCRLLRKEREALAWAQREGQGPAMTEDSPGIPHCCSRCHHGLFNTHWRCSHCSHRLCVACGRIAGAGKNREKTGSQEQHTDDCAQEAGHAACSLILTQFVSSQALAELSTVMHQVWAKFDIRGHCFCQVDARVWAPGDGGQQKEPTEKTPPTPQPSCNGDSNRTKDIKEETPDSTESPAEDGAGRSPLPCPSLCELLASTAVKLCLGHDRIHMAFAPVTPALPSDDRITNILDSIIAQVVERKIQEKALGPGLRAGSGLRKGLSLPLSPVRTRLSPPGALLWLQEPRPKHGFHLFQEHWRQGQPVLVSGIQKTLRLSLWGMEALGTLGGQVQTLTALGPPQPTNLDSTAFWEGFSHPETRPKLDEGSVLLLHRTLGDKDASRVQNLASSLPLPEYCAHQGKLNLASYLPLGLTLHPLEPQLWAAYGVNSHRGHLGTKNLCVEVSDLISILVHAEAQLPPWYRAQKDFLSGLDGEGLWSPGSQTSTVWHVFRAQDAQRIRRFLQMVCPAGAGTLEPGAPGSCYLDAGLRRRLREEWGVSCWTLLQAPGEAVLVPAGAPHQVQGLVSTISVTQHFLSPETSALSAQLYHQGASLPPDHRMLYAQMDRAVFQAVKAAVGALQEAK

B1: Human vesicle-associated membrane protein 2: human HRt interacting partner, GenBank BC002737, SEQ ID NO:22/23 (protein, listed as Homo sapiens)
chain: QGEGKGDGTGSYREGQGPRQQGGHQEAAAAATVCVASLPPPQHPRQLGLAPLPSLHCTLSLKINFQPCLLSTWWVVGMQFGICSTPST
B2: Human monocyte antigen CD14: human HRt interacting partner, GenBank M86511, SEQ ID NO:14/15 (protein, listed as Homo sapiens)
chain: KRINLISQTKRPDRNMSLSRACPCWNGLLTTIKNLELLLEIVTDKSQEGSQFVKGFGGIGGILRYRVDFQGMEYQGGDDEFFDLDDY
B3: Human sequence from clone RP4-753, chromosome 21q: human HRt interacting partner, GenBank AL031676, SEQ ID NO:12/13 (protein, listed as Homo sapiens)
chain: TRSSFRSEATPSEPVLVSVHLSVLPARVQPRGMDRARVAVAAGSLAPPVLPPPIQRLRGCSMFYVFLNEDPSDGSSPIPDSGSPSGPRAAPEHPARLPLT
B4: Human small intestine cDNA to mRNA clone HSI10987: human HRt interacting partner, GenBank AK026339, SEQ ID NO:24/25 (protein, listed as Homo sapiens)
chain: CPGRSQGPHCWDAGCSGAPQAQVPSVFSFDFAAVLVLLLYPQELTWTQILGPPWSASSSAFGSGKNSSRTFYSQRQSLSFLCPICISSRRDPP
B5: Human aldolase A: human HRt interacting partner, GenBank M11560, SEQ ID NO:26/27 (protein, listed as Homo sapiens)
chain: VSKAVEHINKTIAPALVSKKLNVTEQEKIDKLMIEMDGTENKSKFGANAILGVSLAVCKAGAVEKGVPLYRHIADLAGNSEVILPVPAFNVINGGFSCCNKLAMHEVHDPPSRCSKLQGSLRIGTE
B6: Human CGI-106 protein: human HRt interacting partner, GenBank AF151864, SEQ ID NO:28/29 (protein, listed as Homo sapiens)
chain: DEDTEGFGVPRHDPLPDPLKVPPPLPDPSSICMVDPEMLPPKTARQTENVSRTRKPLARPNSRAAAPKATPVAAAKTKGLAGGDRASRPLSARSEPSEKGGRAPLSRKSSTPKTATRGPSGSASSRPGVSATPPKSPVYLDLAYLPSGSSAHLVDEEFFQRVRALCYVISGQDQRKEEGMRAVLDALLASKQHWDRDLQVTLIPTFDSVAMHTWYAETHAR

Molecular target: T1, mouse HRt (hairless protein aa 490-1182)
Assay: Yeast two-hybrid screen of BD-HRt against human brain cDNA library in AD vector, lacZ coloration on QDO-Xgal plates
Type: cell-based
Details: BD-HRt(mouse) x human brain cDNA library in AD-vector
Source text: The present example provides for Hairless Protein (HR) interacting partners (HR-IP) using the yeast two-hybrid technology. […] Yeast cells expressing BD-HRt are mated with yeast cells pretransformed with human brain cDNA library in the activation domain (AD) vector.
Cloning of HRt into GAL4 binding domain (BD) yeast two-hybrid (Y2H) vector: The HRt insert from pET32a-HRt is excised as an Eco RI-Xho I fragment (there is a unique Xho I site just adjacent to HRt insert) and inserted at the Eco RI-Sal I sites of Y2H-BD vector pGBKT7 (Catalog No. K1612-B; a component of Matchmaker two-hybrid System 3 (Catalog No. K1612-1) BD Biosciences Clontech, Palo Alto, Calif.) to obtain pGBKT7-HRt in which HRt is fused in-frame to GAL 4 DNA BD (this plasmid is also designated BD-HRt).
Pretransformed human brain […] cDNA Library Screen for HRt interaction partners: Pretransformed human brain […] high-complexity GAL4 cDNA library that has already been amplified and introduced into yeast strain Y187 (MATα) is used to screen for HRt interacting proteins. […] The library host strain Y187 provides a third reporter gene (lacZ) for optional quantification of signal strength. The protocol as described in Clontech user manual (PT3183-1) is used. Briefly, the library is mixed with PJ69-2A strain that has been transformed with the BD-HRt plasmid in YPD medium containing adenine hemisulfate (0.004%) and kanamycin (0.005%) and incubated for 20-24 h at 30° C. The next day, the mating mixture is plated on Leu, Trp, His TDO that selects for two-hybrid interactions, and then the positive clones are screened for growth on Leu, Trp, His, Ade QDO, which is a more stringent condition for interaction. Colonies that grew well on QDO are also screened for lacZ expression by streaking on QDO-Xgal plates. Based on a visual assessment of colonies for the intensity of blue color, the clones are classified into high (H), medium (M), low (L) or very low (VL) categories.
The positive clones are expected to contain an AD-IP (interacting partner) that interacts with BD-HRt. To characterize IP, the sequence of IP is determined and matched to the human genome database. For this purpose, total DNA is isolated from the positive clones and PCR amplified with […] AD LD (long distance)-insert screening amplimers (Catalog No.9103-1; BD Biosciences Clontech, PaloAlto, Calif.). Reaction is conducted in 50 μl volume for 35 cycles using the conditions recommended with the Advantage2 PCR kit (Catalog No. K1910-1; BD Biosciences Clontech, PaloAlto, Calif.).

Molecule	XGAL (rate and intensity of coloration of colonies on Xgal)
Human cDNA: FLJ23187 fis, clone: LNG11989: human HRt interacting partner, GenBank AK026840, SEQ ID NO:78/79	L (L = Low blue in 5-7 days)
Human Thy-1 glycoprotein: human HRt interacting partner, GenBank AF261093, SEQ ID NO:66/67	L (L = Low blue in 5-7 days)
Human hypothetical protein: human HRt interacting partner, GenBank BC006358, SEQ ID NO:34/35	M (M = Medium blue in 3-5 days)
Human mRNA for C11ORF25 gene: interacting partner nucleic acid, homology in a 3'-untranslated region, GenBank AJ300461, SEQ ID NO:94 (DNA CTATTCGATGATGAAGATACCCCACCAAACCCA; listed as DNA, chemistry not fully specified; the letters are possibly those of the target site)	VL (VL = Very Low blue in 10 days)
Human Sphingolipid activator protein: human HRt interacting partner, GenBank M60255, SEQ ID NO:16/17 (PLPPPCLLPLPRPPLLPRLGRVVPLHPLQTSPVTGDCSRPRPRWMRWWTS; listed as Homo sapiens)	M (M = Medium blue in 3-5 days)
Human ubiquitous receptor UR: human HRt interacting partner, GenBank E11456, SEQ ID NO:1/2	H/M
Human tyrosine phosphatase type 1VA, member 2: human HRt interacting partner, GenBank U14603, SEQ ID NO:51/52	L (L = Low blue in 5-7 days)
Human cDNA FLJ20456 fis clone KAT05827: human HRt interacting partner, GenBank AK000463, SEQ ID NO:74/75	L/VL
Human synuclein-beta: human HRt interacting partner, GenBank BC002902, SEQ ID NO:18/19 (FCPTPTATPCRNSPGVTSGGPRPCWARLMEVPQERTRTAWCSTPRLPSRSRSSASVMM; listed as Homo sapiens)	M (M = Medium blue in 3-5 days)
Human pre-B cell colony enhancing factor (PBEF): human HRt interacting partner, GenBank U02020, SEQ ID NO:55	L (L = Low blue in 5-7 days)
Human ubiquitin: human HRt interacting partner, GenBank AR075562, SEQ ID NO:70/71 (EKFAPKKQGDGGKDLPTEAKKRAAEFCRGALC; listed as Homo sapiens)	L/VL
Human genomic region containing hypervariable mini satellites Chromosome 10[10q26.3]: human HRt interacting partner, GenBank AL096810, SEQ ID NO:64/65 (NMKNRMMWRVMTLEKTRVNIIQTHLLCLLLIQMK; listed as Homo sapiens)	L (L = Low blue in 5-7 days)
Human C11 protein: human HRt interacting partner, GenBank X81625, SEQ ID NO:20/21	M (M = Medium blue in 3-5 days)
HUMFGF1A Human fibroblast growth factor (FGF) receptor-1 mRNA: interacting partner nucleic acid, homology in a 3'-untranslated region, GenBank M34641, SEQ ID NO:92	VL (VL = Very Low blue in 10 days)
Human ankyrin repeat containing protein ASB-2: human HRt interacting partner, GenBank AF159164, SEQ ID NO:38/39	M (M = Medium blue in 3-5 days)
B1	M (M = Medium blue in 3-5 days)
B2	H (H = Intense blue within 2-3 days)
B3	H (H = Intense blue within 2-3 days)
B4	M (M = Medium blue in 3-5 days)
B5	M (M = Medium blue in 3-5 days)
B6	M (M = Medium blue in 3-5 days)

— US20040086945A1, “Hairless protein-interacting partner complexes and methods thereto” (The Procter & Gamble Company, priority 2002, published 2004)
